This is an account of results in US20090232794A1 (published 2009).

Test [1] addresses T1, purified human C1q protein (human, UniProt P02745 23-245; P02746 28-253; P02747 29-245). The test is described as follows: purified human C1q on transfected COS7 cells, anti-C1q-FITC immunofluorescence. On the procedure:
COS7 cells were transfected with cDNA's encoding full-length NgR or PirB. […] Cells were washed four times with Hank's Buffered Saline Solution (HBSS), fixed for five minutes with 2% paraformaldehyde, washed four times with HBSS, and blocked for 15 minutes with 10% heat-inactivated goat serum (RIGS) in HBSS. […] Immunofluorescence was detected using a Zeiss Axioskop fluorescence microscope.

Test [2] addresses T1, purified human C1q protein. The test is described as follows: purified human C1q on transfected cells, anti-C1q-FITC immunofluorescence.

T1 sequence (P02745 23-245, chain 1 of 3): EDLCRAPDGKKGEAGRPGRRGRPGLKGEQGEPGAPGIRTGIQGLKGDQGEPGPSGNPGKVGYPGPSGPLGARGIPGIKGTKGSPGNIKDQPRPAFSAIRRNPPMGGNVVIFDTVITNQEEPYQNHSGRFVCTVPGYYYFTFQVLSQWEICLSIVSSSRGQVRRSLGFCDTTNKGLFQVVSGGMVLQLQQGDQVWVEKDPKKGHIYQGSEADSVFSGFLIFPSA
T1 sequence (P02746 28-253, chain 2 of 3): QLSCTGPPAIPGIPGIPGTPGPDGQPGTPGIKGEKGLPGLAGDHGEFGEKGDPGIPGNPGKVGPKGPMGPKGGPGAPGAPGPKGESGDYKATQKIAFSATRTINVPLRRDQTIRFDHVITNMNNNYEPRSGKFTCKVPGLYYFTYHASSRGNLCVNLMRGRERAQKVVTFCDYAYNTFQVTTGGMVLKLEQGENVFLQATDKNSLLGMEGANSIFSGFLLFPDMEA
T1 sequence (P02747 29-245, chain 3 of 3): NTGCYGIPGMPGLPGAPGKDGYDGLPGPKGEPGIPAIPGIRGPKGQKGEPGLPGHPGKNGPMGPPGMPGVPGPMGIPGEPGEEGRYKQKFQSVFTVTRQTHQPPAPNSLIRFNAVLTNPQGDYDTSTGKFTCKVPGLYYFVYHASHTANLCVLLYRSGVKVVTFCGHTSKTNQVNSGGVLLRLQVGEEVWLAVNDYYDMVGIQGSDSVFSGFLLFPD

B1: PirB (paired-immunoglobulin-like receptor B), full-length, expressed on transfected COS7 cells (receptor)
chain: SLPKPILRVQPDSVVSRWTKVTFFCEETIGANEYRLYKDGKLYKTVTKNKQKPANKAEFSLSNVDLRNAGQYRCSYSTQYKSSGYSDPLELVVTGDYWTPSLLAQASPVVTSGGYVTLQCESWHNDHKFILTVEGPQKLSWTQDSQYNYSTRKYHALFSVGPVTPNQRWICRCYSYDRNRPYVWSPPSESVELLVSGNLQKPTIKAEPGPVIASKRAMTIWCQGNLDAEVYFLHNEGSQKTQSTQTLQQPGNKGKFFIPSMTRQHAGQYRCYCYGSAGWSQPSDTLELVVTGIYEHYKPRLSVLPSPVVTAGGNMTLHCASDFHYDKFILTKEDKKFGNSLDTEHISSSRQYRALFIIGPTTPTHTGTFRCYGYFKNAPQLWSVPSDLQQILISGLSKKPSLLTHQGHILDPGMTLTLQCYSDINYDRFALHKVGGADIMQHSSQQTDTGFSVANFTLGYVSSSTGGQYRCYGAHNLSSEWSASSEPLDILITGQLPLTPSLSVKPNHTVHSGETVSLLCWSMDSVDTFILSKEGSAQQPLRLKSKSHDQQSQAEFSMSAVTSHLSGTYRCYGAQNSSFYLLSSASAPVELTVSGPIETSTPPPTMSMPLGGLHMYLKALIGVSVAFILFLFILIFILLRRRHRGKFRKDVQKEKDLQLSSGAEEPITRKGELQKRPNPAAATQEESLYASVEDMQTEDGVELNSWTPPEEDPQGETYAQVKPSRLRKAGHVSPSVMSREQLNTEYEQAEEGQGANNQAAESGESQDVTYAQLCSRTLRQGAAASPLSQAGEAPEEPSVYATLAAARPEAVPKDVEQ
notes: COS7 cells were transfected with cDNA encoding full-length PirB; In the antibody outgrowth assays the target is the PirB of mouse neurons
Consider B1, for which, in test [1], the binding result is listed as “binds”.

B2: LILRB2, expressed on transfected COS7 cells (receptor)
chain: QTGTIPKPTLWAEPDSVITQGSPVTLSCQGSLEAQEYRLYREKKSASWITRIRPELVKNGQFHIPSITWEHTGRYGCQYYSRARWSELSDPLVLVMTGAYPKPTLSAQPSPVVTSGGRVTLQCESQVAFGGFILCKEGEDEHPQCLNSQPHARGSSRAIFSVGPVSPNRRWSHRCYGYDLNSPYVWSSPSDLLELLVPGVSKKPSLSVQPGPVVAPGESLTLQCVSDVGYDRFVLYKEGERDLRQLPGRQPQAGLSQANFTLGPVSRSYGGQYRCYGAYNLSSEWSAPSDPLDILITGQIHGTPFISVQPGPTVASGENVTLLCQSWRQFHTFLLTKAGAADAPLRLRSIHEYPKYQAEFPMSPVTSAHAGTYRCYGSLNSDPYLLSHPSEPLELVVSGPSMGSSPPPTGPISTPAGPEDQPLTPTGSDPQSGLGRHLGVVIGILVAVVLLLLLLLLLFLILRHRRQGKHWTSTQRKADFQHPAGAVGPEPTDRGLQWRSSPAADAQEENLYAAVKDTQPEDGVEMDTRAAASEAPQDVTYAQLHSLTLRRKATEPPPSQEREPPAEPSIYATLAIH
notes: also called ILT4; LIR2
For B2, in test [2], the binding result was “binds”.
